In US20220242941A1 (NOVOBIND LIVESTOCK THERAPEUTICS, published 2022):

T1: Eimeria maxima MIC2 (Eimeria maxima)
T1 construct: Recombinant antigen coated on ELISA wells; also called EmMIC2
T1 chain: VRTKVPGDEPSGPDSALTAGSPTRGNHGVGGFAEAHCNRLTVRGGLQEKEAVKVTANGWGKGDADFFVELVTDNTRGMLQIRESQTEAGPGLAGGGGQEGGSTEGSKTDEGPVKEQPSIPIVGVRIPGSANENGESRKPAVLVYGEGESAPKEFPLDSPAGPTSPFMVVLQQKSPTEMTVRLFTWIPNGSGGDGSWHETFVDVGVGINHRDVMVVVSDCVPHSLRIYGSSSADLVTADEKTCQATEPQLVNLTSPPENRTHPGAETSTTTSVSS


Columns and labels:
[1] = target: T1, Eimeria maxima MIC2; experiment: phage ELISA, antigen-coated wells;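 note: antigen dissolved in PBS and coated onto wells, with negative-control wells holding PBS alone as the reference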
Description: Black bars show binding to wells coated with the antigen specified in Tables 1 and 2 dissolved in phosphate-buffered saline (PBS). Grey bars are negative controls that show binding to wells coated with PBS only.

[2] = target: T2, GST fusion of the EtAMA1-binding peptide of EtRON2 (Eimeria tenella, UniProt P08515 1-218 = GST); experiment: phage ELISA, wells coated with GST-RON2 peptide
T2 construct: Expressed in E. coli, purified as the other antigens but without TEV cleavage, so a His tag and TEV site probably remain; also called GST-RON2 peptide
T2 sequence (P08515 1-218, tags or fused parts left off): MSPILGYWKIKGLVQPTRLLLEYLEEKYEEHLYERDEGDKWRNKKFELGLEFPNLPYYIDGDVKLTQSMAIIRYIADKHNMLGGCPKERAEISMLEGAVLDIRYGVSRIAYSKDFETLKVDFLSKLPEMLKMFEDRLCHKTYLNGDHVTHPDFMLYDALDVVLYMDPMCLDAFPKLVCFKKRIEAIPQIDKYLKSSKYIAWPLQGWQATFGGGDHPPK

Binder	binding relative to PBS-coated wells [1]	binding relative to GST-coated wells [2]	binding relative to PBS-coated wells [2]
NBX0711 (VHH) VHH: QVQLQQSGGGLVQPGGSLRLSCAASRSIRSADAMAWYRQAPGKQRVWVATITSGGSTYYTDSVKGRFTISRDNAKSTVYLQMSSLKPEDTAVYYCNAVGDRTSYWGQGTQVTVAS	≥ 4 times	–	–
NBX0733 (VHH) VHH: QVQLQQSGGGLVQPGGSLRLSCAASGSIFSVDAMAWYRQAPGKQREWVATFTKGGSTYYAGSVKGRFTISRDNAKNTVYLQMSSLKPEDTAVYYCNAVGDRTGAWGQGTQVTVAS	≥ 4 times	–	–
NBX16043 (VHH) VHH: QVQLQESGGGLVQAGGSLRLSCAASGIAFSMFDMVWYRQAPGKQRELVASVSDGGSTAYADSVKGRFTISRDNAKKMVYLQMNSLKPEDTAVYYCKAARSWAYGSGYWGQGIQVTVSS	–	≥ 3 times	≥ 4 times
NBX16042 (VHH) VHH: QVQLQESGGGLVQAGGSLRLSCVASGITFNFNYYVMGWYRQAPGKQRELVARISDGGNTNYADSVKGRFTISRDNTKNTGYLQMNSLKPEDTAIYYCNLRRSWAPADNGHWGQGTQVTVSS	–	≥ 3 times	≥ 4 times
NBX16039 (VHH) VHH: QVQLQQSGGGLVQAGGSLRLSCTTSGIIFSFSLLNVGWYRQAPGKERELVARMSTAGNTYYSTSVKDRFTISRDNGKNTVDLQMNSLNADDTAVYYCNLRRSWAPSDSGFWGQGTQVFVSS	–	≥ 3 times	≥ 4 times
NBX0716 (VHH) VHH: QVQLQESGGGLVQAGGSLSLSCTASGRTFSTFPVAWFRQAPGKEREFVARINWFTTDTYYADSVKGRFTISRDSAKNTVYLQMNALKPEDTAIYYCAAARSNTGTSRFDYWGQGTQVTVSS	≥ 4 times	–	–
NBX16035 (VHH) VHH: QVQLQESGGGLVQAGGSLRLSCAASGSIFSINVIGWYRQVPGKERELVANSGSTTKYADSVKGRFTISRDNAKNTVDLQMNSLKPEDTAVYYCNAVVTSRTSLGLRSYVYWGQGTQVTVSS	–	≥ 3 times	≥ 4 times
NBX16037 (VHH) VHH: QVQLQQSGGGLVQAGGSLRLSCAASGSIFSINVIGWYRQVPGKERELVAKSDRTTKYADSVKGRFTISRDNAKNTVDLQMNSLKPEDTAVYYCNAVVTSRTSQGLRSYAYWGQGTQVTVSS	–	≥ 3 times	≥ 4 times
NBX16041 (VHH) VHH: QVQLQESGGGLVQAGGSLRLSCAASGSIFSINVIGWYRQAPGKERELVANSGSTTKYADSVKGRFTISRDNAKNTVDLQMNSLKPEDTAVYYCNAVVTSRTSLGLRSYAYWGQGTQVTVSS	–	≥ 3 times	≥ 4 times
NBX16040 (VHH) VHH: QVQLQESGGGMVQAGGSLRLSCAASGTTITINTMRWYRQPPGKERELVASIVPSGKTYYADSVKGRFTISRDNHKNTMYLQMNSLKPEDTAVYYCNSDGRFRGIGTYWGQGTQVTVSS	–	≥ 3 times	≥ 4 times
NBX0713 (VHH) VHH: QVQLQESGGGLVQPGGSLRLSCAASGRTFRRNAMGWFRQAPGKAREFVATISWSGNRAYSDSVKGRFTISRDNGKNLVSLQMNSLKPEDTAVYYCAAARERITSTYYTPHVLTDYDAWGQGAQVTVSS	≥ 4 times	–	–
NBX0732 (VHH) VHH: QVQLQESGGGLVQTGGSLRLSCAASGRTFRRNAMGWFRQAPGKAREFVATITWSGNRAYSDSVKGRFTISRDNEKNLVSLQMNSLKPEDTAVYYCAAARERITSTYYTPHVLTEYDAWGQGAQVTVSS	≥ 4 times	–	–
NBX0712 (VHH) VHH: QVQLQESGGGLVQTGGSLRLSCAASGRTFTRNAMGWFRQAPGKAREFVAVISWSGNRAYSDSVKGRFTISRDNGKNLVSLQMNSLKPEDTAVYYCAAAREAITSTYYTPHVLTDYDAWGQGAQVTVSS	≥ 4 times	–	–
NBX0715 (VHH) VHH: QVQLQQSGGGLVQAGGSLRLSCAASGRTFSRNAMGWFRQAPGKAREFVATISWSGNRAYSDSVKGRFTISRDNEKNLVSLHMNSLKPEDTAVYYCAAARERITSTYYTPHVLTDYDAWGQGAQVTVSS	≥ 4 times	–	–
NBX16036 (VHH) VHH: QVQLQESGGGLVQAGGSLRLSCVALGNIGWINDMGWYRQAPGKERELVARISSAEATNYADAVKGRFTISRDDAKNTVYLQMNSLKPEDTAVYSCHTRRWYDDGYDYDTWGQGTQVTVSS	–	≥ 3 times	≥ 4 times
NBX0718 (VHH) VHH: QVQLQESGGGLVQAGGSLRLSCAANGRTFSSYAMAWFRQAPGKEREFVAAVGWSGGRTYYTDSVKGRFTISRDNAKDTVYLQMNSLKPEDTAVYYCAATRGWAQATLLYDYDYWGQGTQVTVSS	≥ 4 times	–	–
NBX0717 (VHH) VHH: QVQLQESGGGLVQAGGSLRLSCAASTNIATFTTMGWYRQAPGKERELVATTTPWGATTSYADSVKGRFTISNDNAKNTVNLQMNSLKPEDTAVYYCNAQQDIPTTQTYWGQGTQVTVSS	≥ 4 times	–	–
NBX0708 (VHH) VHH: QVQLQESGGGLVQAGDSLSLSCVDSKRTADRYVMHWFRQVPGKDREFVAAISGNGLVRNYADSVKGRFTISRDNAKNMVYLQMKSLKPEDTAVYYCAADFVLDSRWRYVPYWGQGTQVTVSS	≥ 4 times	–	–
NBX16034 (VHH) VHH: QVQLQESGGGVVQAGGSLRLSCVASGSDTSVYAMRWWRQVPGKERLLLASITSGGTVRYAESVKGRFTISRDDAKNTLYLQMNSLKTEDTAVYLCNAERVLARQNYWGQGTQVTVSS	–	≥ 3 times	≥ 4 times
NBX16033 (VHH) VHH: QVQLQESGGGTVQAGGSLRLSCAVSGSTFSSYSMNWYRQGPGNQREWVGGIRSNDSTYYADSVKGRFTISRDNAKNAWNLQMNSLKSEDTAVYYCNFWDGSFNQYWGQGTQVTVSA	–	≥ 3 times	≥ 4 times
NBX16038 (VHH) VHH: QVQLQQSGGGLVQSGGSLRLSCTATRSTISGYGGRWYRQAPGKQREFVALLSSGGMTRYADSVMGRFTISRDDIKNTLYLQMNTLKPEDTAVYYCNTFDGAWGQGTQVTVSS	–	≥ 3 times	≥ 4 times
NBX0740 (VHH) VHH: QVQLQESGGGLVQAGGSLRLSCAASGRTFVNYNMGWFRQAPGKEREFVATINWSGGSTYYAGSVKGRFTISRDSAKNTVYLQMNKLKPEDTAVYYCAAEVGYGYQGPPLTTPSMYDYWGQGTQVTVST	≥ 4 times	–	–
NBX0707 (VHH) VHH: QVQLQESGGGLVQAGGSLRLSCAASGSIFSRDTMAWYRQVPGEQRELVAFITNFGGTNHADSVKGRFTISRDNAKNTVYLQMNSLKPEDTAVYYCAAGLVSLRTHTWEYWGQGTQVTVSS	4 times	–	–
NBX0752 (VHH) VHH: QVQLQESGGGLVQAGGSLRLSCAASGSIFSRDNMAWYRQVPGEQRELVALITNFGGTNHADSVKGRFTISRDNAKNTVYLQMNSLKPEDTAVYYCAAGLVSLLTHTWEYWGQGTQVTVSS	≥ 4 times	–	–
NBX0709 (VHH) VHH: QVQLQESGGGLVQAGGSLRLSCAASGSIFSRDTMAWYRQVPGEQRELVAYITNFGGTNHADSVKGRFTISRDNAKNTVYLQMNSLKPEDTAVYYCAAGLVSLHTHTWEYWGQGTQVTVSS	≥ 4 times	–	–
NBX0714 (VHH) VHH: QVQLQESGGGLVQAGGSLRLSCAASGSIFSRDTMAWYRQVPGEQRELVAYITNFGGTNHAGSVKGRFTISRDNAKNTVYLQMNSLKPEDTAVYYCAAELVSLRTHTWEYWGQGTQVTVSS	≥ 4 times	–	–
NBX0731 (VHH) VHH: QVQLQESGGGLVQPGGSLRVSCAASGFTFSRDTMAWYRQVPGEQRELVAYITNFGGTNHADSVKGRFTISRDNAKNTVYLQMNSLKPEDTAVYYCAAGLVSLRTHTWEYWGQGTQVTVSS	≥ 4 times	–	–
NBX0734 (VHH) VHH: QVQLQESGGGLVQAGGSLRLSCAASGSIFSRDTMAWYRQVPGEQRELVAYITNFGGTNHADSVKGRFTISRDNAKNTVYLQMNSLKPEETAVYYCAAGLVSLRTHTWEYWGQGTQVTVSS	≥ 4 times	–	–
